Test results reported in the supplement of paper PMC12338614.
± gives the uncertainty stated by the source.

B1: library; numbered along this chain (parent)
chain: MEVVDPQQLGMFTEGELMSVGMDTFIHRIDSTEVIYQPRRKRAKLIGKYLMGDLLGEGSYGKVKEVLDSETLCRRAVKILKKKKLRRIPNGEANVKKEIQLLRRLRHKNVIQLVDVLYNEEKQKMYMVMEYCVCGMQEMLDSVPEKRFPVCQAHGYFCQLIDGLEYLHSQGIVHKDIKPGNLLLTTGGTLKISDLGVAEALHPFAADDTCRTSQGSPAFQPPEIANGLDTFSGFKVDIWSAGVTLYNITTGLYPFEGDNIYKLFENIGKGSYAIPGDCGPPLSDLLKGMLEYEPAKRFSIRQIRQHSWFRKKHPPAEAPVPIPPSPDTKDRWRSMTVVPYLEDLHGADEDEDLFDIEDDIIYTQDFTVPGQVPEEEASHNGQRRGLPKAVCMNGTEAAQLSTKSRAEGRAPNPARKACSASSKIRRLSACKQQ

Variants of: B1
Test: STK11 functional score (HeLa growth suppression), rescaled enrichment; synonymous median = 1, nonsense median = 0 (normalised score)
Details: with HeLa; variant type: missense
In short: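 The values are functional scores: wild-type-corrected log ratios of post- versus pre-selection abundance, rescaled to synonymous and nonsense medians, merged over codons and replicate transfections, and carrying bootstrapped error. They derive from codon-randomised (POPCode), codon-optimised STK11 libraries that Bxb1 integrated at an AAVS1 landing pad in HeLa, with three transfections for each of three regions. Sequencing of tiled gDNA amplicons ran on NextSeq, at ~2 million reads per tile.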

Variant | STK11 functional score
MEVVDPQQLGMFTEGELMSVGMDTFIHRIDSTEVIYQPRRKRAKLIGKYLMGDLLGEGSYGKVKEVLDSETLCRRAVKILKKKKLRRIPNGEANVKKEIQLLRRLRHKNVIQLVDVLYNEEKQKMYMVMEYCVCGMQEMLDSVPEKRFPVCQAHGYFCQLIDGLEYLHSQGIVHKDIKPGNLLLTTGGTLKISDLGVAEALHPFAADDTCRTSQGSPAFQPPEIANGLDTFSGFKVDIWSAGVTLYNITTGLYPFEGDNIYKLFENIGKGSYAIPGDCGPPLSDLLKGMLEYEPAKRFSIRQIRQHSWFRKKHPPAEAPVPIPPSPDTKDRWRSMTVVPYLEDLHGADEDEDLFDIEDDIIYTQDFTVPGQVPEEEASHNGQWRGLPKAVCMNGTEAAQLSTKSRAEGRAPNPARKACSASSKIRRLSACKQQ [R383W] | 0.781 ± 0.14
MEVVDPQQLGMFTEGELMSVGMDTFIHRIDSTEVIYQPRRKRAKLIGKYLMGDLLGEGSYGKVKEVLDSETLCRRAVKILKKKKLRRIPNGEANVKKEIQLLRRLRHKNVIQLVDVLYNEEKQKMYMVMEYCVCGMQEMLDSVPEKRFPVCQAHGYFCQLIDGLEYLHSQGIVHKDIKPGNLLLTTGGTLKISDLGVAEALHPFAADDTCRTSQGSPAFQPPEIANGLDTFSGFKVDIWSAGVTLYNITTGLYPFEGDNIYKLFENIGKGSYAIPGDCGPPLSDLLKGMLEYEPAKRFSIRQIRQHSWFRKKHPPAEAPVPIPPSPDTKDRWRSMTVVPYLEDLHGADEDEDLFDIEDDIIYTQDFTVPGQVPEEEASHNGQQRGLPKAVCMNGTEAAQLSTKSRAEGRAPNPARKACSASSKIRRLSACKQQ [R383Q] | 1.51 ± 0.28
MEVVDPQQLGMFTEGELMSVGMDTFIHRIDSTEVIYQPRRKRAKLIGKYLMGDLLGEGSYGKVKEVLDSETLCRRAVKILKKKKLRRIPNGEANVKKEIQLLRRLRHKNVIQLVDVLYNEEKQKMYMVMEYCVCGMQEMLDSVPEKRFPVCQAHGYFCQLIDGLEYLHSQGIVHKDIKPGNLLLTTGGTLKISDLGVAEALHPFAADDTCRTSQGSPAFQPPEIANGLDTFSGFKVDIWSAGVTLYNITTGLYPFEGDNIYKLFENIGKGSYAIPGDCGPPLSDLLKGMLEYEPAKRFSIRQIRQHSWFRKKHPPAEAPVPIPPSPDTKDRWRSMTVVPYLEDLHGADEDEDLFDIEDDIIYTQDFTVPGQVPEEEASHNGQMRGLPKAVCMNGTEAAQLSTKSRAEGRAPNPARKACSASSKIRRLSACKQQ [R383M] | 1.59 ± 0.31
MEVVDPQQLGMFTEGELMSVGMDTFIHRIDSTEVIYQPRRKRAKLIGKYLMGDLLGEGSYGKVKEVLDSETLCRRAVKILKKKKLRRIPNGEANVKKEIQLLRRLRHKNVIQLVDVLYNEEKQKMYMVMEYCVCGMQEMLDSVPEKRFPVCQAHGYFCQLIDGLEYLHSQGIVHKDIKPGNLLLTTGGTLKISDLGVAEALHPFAADDTCRTSQGSPAFQPPEIANGLDTFSGFKVDIWSAGVTLYNITTGLYPFEGDNIYKLFENIGKGSYAIPGDCGPPLSDLLKGMLEYEPAKRFSIRQIRQHSWFRKKHPPAEAPVPIPPSPDTKDRWRSMTVVPYLEDLHGADEDEDLFDIEDDIIYTQDFTVPGQVPEEEASHNGQKRGLPKAVCMNGTEAAQLSTKSRAEGRAPNPARKACSASSKIRRLSACKQQ [R383K] | 1.57 ± 0.2
MEVVDPQQLGMFTEGELMSVGMDTFIHRIDSTEVIYQPRRKRAKLIGKYLMGDLLGEGSYGKVKEVLDSETLCRRAVKILKKKKLRRIPNGEANVKKEIQLLRRLRHKNVIQLVDVLYNEEKQKMYMVMEYCVCGMQEMLDSVPEKRFPVCQAHGYFCQLIDGLEYLHSQGIVHKDIKPGNLLLTTGGTLKISDLGVAEALHPFAADDTCRTSQGSPAFQPPEIANGLDTFSGFKVDIWSAGVTLYNITTGLYPFEGDNIYKLFENIGKGSYAIPGDCGPPLSDLLKGMLEYEPAKRFSIRQIRQHSWFRKKHPPAEAPVPIPPSPDTKDRWRSMTVVPYLEDLHGADEDEDLFDIEDDIIYTQDFTVPGQVPEEEASHNGQSRGLPKAVCMNGTEAAQLSTKSRAEGRAPNPARKACSASSKIRRLSACKQQ [R383S] | 1.3 ± 0.17
MEVVDPQQLGMFTEGELMSVGMDTFIHRIDSTEVIYQPRRKRAKLIGKYLMGDLLGEGSYGKVKEVLDSETLCRRAVKILKKKKLRRIPNGEANVKKEIQLLRRLRHKNVIQLVDVLYNEEKQKMYMVMEYCVCGMQEMLDSVPEKRFPVCQAHGYFCQLIDGLEYLHSQGIVHKDIKPGNLLLTTGGTLKISDLGVAEALHPFAADDTCRTSQGSPAFQPPEIANGLDTFSGFKVDIWSAGVTLYNITTGLYPFEGDNIYKLFENIGKGSYAIPGDCGPPLSDLLKGMLEYEPAKRFSIRQIRQHSWFRKKHPPAEAPVPIPPSPDTKDRWRSMTVVPYLEDLHGADEDEDLFDIEDDIIYTQDFTVPGQVPEEEASHNGQTRGLPKAVCMNGTEAAQLSTKSRAEGRAPNPARKACSASSKIRRLSACKQQ [R383T] | 1.56 ± 0.24
MEVVDPQQLGMFTEGELMSVGMDTFIHRIDSTEVIYQPRRKRAKLIGKYLMGDLLGEGSYGKVKEVLDSETLCRRAVKILKKKKLRRIPNGEANVKKEIQLLRRLRHKNVIQLVDVLYNEEKQKMYMVMEYCVCGMQEMLDSVPEKRFPVCQAHGYFCQLIDGLEYLHSQGIVHKDIKPGNLLLTTGGTLKISDLGVAEALHPFAADDTCRTSQGSPAFQPPEIANGLDTFSGFKVDIWSAGVTLYNITTGLYPFEGDNIYKLFENIGKGSYAIPGDCGPPLSDLLKGMLEYEPAKRFSIRQIRQHSWFRKKHPPAEAPVPIPPSPDTKDRWRSMTVVPYLEDLHGADEDEDLFDIEDDIIYTQDFTVPGQVPEEEASHNGQIRGLPKAVCMNGTEAAQLSTKSRAEGRAPNPARKACSASSKIRRLSACKQQ [R383I] | 1.57 ± 0.22
MEVVDPQQLGMFTEGELMSVGMDTFIHRIDSTEVIYQPRRKRAKLIGKYLMGDLLGEGSYGKVKEVLDSETLCRRAVKILKKKKLRRIPNGEANVKKEIQLLRRLRHKNVIQLVDVLYNEEKQKMYMVMEYCVCGMQEMLDSVPEKRFPVCQAHGYFCQLIDGLEYLHSQGIVHKDIKPGNLLLTTGGTLKISDLGVAEALHPFAADDTCRTSQGSPAFQPPEIANGLDTFSGFKVDIWSAGVTLYNITTGLYPFEGDNIYKLFENIGKGSYAIPGDCGPPLSDLLKGMLEYEPAKRFSIRQIRQHSWFRKKHPPAEAPVPIPPSPDTKDRWRSMTVVPYLEDLHGADEDEDLFDIEDDIIYTQDFTVPGQVPEEEASHNGQGRGLPKAVCMNGTEAAQLSTKSRAEGRAPNPARKACSASSKIRRLSACKQQ [R383G] | 1.11 ± 0.35
MEVVDPQQLGMFTEGELMSVGMDTFIHRIDSTEVIYQPRRKRAKLIGKYLMGDLLGEGSYGKVKEVLDSETLCRRAVKILKKKKLRRIPNGEANVKKEIQLLRRLRHKNVIQLVDVLYNEEKQKMYMVMEYCVCGMQEMLDSVPEKRFPVCQAHGYFCQLIDGLEYLHSQGIVHKDIKPGNLLLTTGGTLKISDLGVAEALHPFAADDTCRTSQGSPAFQPPEIANGLDTFSGFKVDIWSAGVTLYNITTGLYPFEGDNIYKLFENIGKGSYAIPGDCGPPLSDLLKGMLEYEPAKRFSIRQIRQHSWFRKKHPPAEAPVPIPPSPDTKDRWRSMTVVPYLEDLHGADEDEDLFDIEDDIIYTQDFTVPGQVPEEEASHNGQYRGLPKAVCMNGTEAAQLSTKSRAEGRAPNPARKACSASSKIRRLSACKQQ [R383Y] | 1.25 ± 0.54
MEVVDPQQLGMFTEGELMSVGMDTFIHRIDSTEVIYQPRRKRAKLIGKYLMGDLLGEGSYGKVKEVLDSETLCRRAVKILKKKKLRRIPNGEANVKKEIQLLRRLRHKNVIQLVDVLYNEEKQKMYMVMEYCVCGMQEMLDSVPEKRFPVCQAHGYFCQLIDGLEYLHSQGIVHKDIKPGNLLLTTGGTLKISDLGVAEALHPFAADDTCRTSQGSPAFQPPEIANGLDTFSGFKVDIWSAGVTLYNITTGLYPFEGDNIYKLFENIGKGSYAIPGDCGPPLSDLLKGMLEYEPAKRFSIRQIRQHSWFRKKHPPAEAPVPIPPSPDTKDRWRSMTVVPYLEDLHGADEDEDLFDIEDDIIYTQDFTVPGQVPEEEASHNGQNRGLPKAVCMNGTEAAQLSTKSRAEGRAPNPARKACSASSKIRRLSACKQQ [R383N] | 1.5 ± 0.16
MEVVDPQQLGMFTEGELMSVGMDTFIHRIDSTEVIYQPRRKRAKLIGKYLMGDLLGEGSYGKVKEVLDSETLCRRAVKILKKKKLRRIPNGEANVKKEIQLLRRLRHKNVIQLVDVLYNEEKQKMYMVMEYCVCGMQEMLDSVPEKRFPVCQAHGYFCQLIDGLEYLHSQGIVHKDIKPGNLLLTTGGTLKISDLGVAEALHPFAADDTCRTSQGSPAFQPPEIANGLDTFSGFKVDIWSAGVTLYNITTGLYPFEGDNIYKLFENIGKGSYAIPGDCGPPLSDLLKGMLEYEPAKRFSIRQIRQHSWFRKKHPPAEAPVPIPPSPDTKDRWRSMTVVPYLEDLHGADEDEDLFDIEDDIIYTQDFTVPGQVPEEEASHNGQPRGLPKAVCMNGTEAAQLSTKSRAEGRAPNPARKACSASSKIRRLSACKQQ [R383P] | 1.31 ± 0.26
MEVVDPQQLGMFTEGELMSVGMDTFIHRIDSTEVIYQPRRKRAKLIGKYLMGDLLGEGSYGKVKEVLDSETLCRRAVKILKKKKLRRIPNGEANVKKEIQLLRRLRHKNVIQLVDVLYNEEKQKMYMVMEYCVCGMQEMLDSVPEKRFPVCQAHGYFCQLIDGLEYLHSQGIVHKDIKPGNLLLTTGGTLKISDLGVAEALHPFAADDTCRTSQGSPAFQPPEIANGLDTFSGFKVDIWSAGVTLYNITTGLYPFEGDNIYKLFENIGKGSYAIPGDCGPPLSDLLKGMLEYEPAKRFSIRQIRQHSWFRKKHPPAEAPVPIPPSPDTKDRWRSMTVVPYLEDLHGADEDEDLFDIEDDIIYTQDFTVPGQVPEEEASHNGQLRGLPKAVCMNGTEAAQLSTKSRAEGRAPNPARKACSASSKIRRLSACKQQ [R383L] | 1.42 ± 0.25
MEVVDPQQLGMFTEGELMSVGMDTFIHRIDSTEVIYQPRRKRAKLIGKYLMGDLLGEGSYGKVKEVLDSETLCRRAVKILKKKKLRRIPNGEANVKKEIQLLRRLRHKNVIQLVDVLYNEEKQKMYMVMEYCVCGMQEMLDSVPEKRFPVCQAHGYFCQLIDGLEYLHSQGIVHKDIKPGNLLLTTGGTLKISDLGVAEALHPFAADDTCRTSQGSPAFQPPEIANGLDTFSGFKVDIWSAGVTLYNITTGLYPFEGDNIYKLFENIGKGSYAIPGDCGPPLSDLLKGMLEYEPAKRFSIRQIRQHSWFRKKHPPAEAPVPIPPSPDTKDRWRSMTVVPYLEDLHGADEDEDLFDIEDDIIYTQDFTVPGQVPEEEASHNGQVRGLPKAVCMNGTEAAQLSTKSRAEGRAPNPARKACSASSKIRRLSACKQQ [R383V] | 1.25 ± 0.38
MEVVDPQQLGMFTEGELMSVGMDTFIHRIDSTEVIYQPRRKRAKLIGKYLMGDLLGEGSYGKVKEVLDSETLCRRAVKILKKKKLRRIPNGEANVKKEIQLLRRLRHKNVIQLVDVLYNEEKQKMYMVMEYCVCGMQEMLDSVPEKRFPVCQAHGYFCQLIDGLEYLHSQGIVHKDIKPGNLLLTTGGTLKISDLGVAEALHPFAADDTCRTSQGSPAFQPPEIANGLDTFSGFKVDIWSAGVTLYNITTGLYPFEGDNIYKLFENIGKGSYAIPGDCGPPLSDLLKGMLEYEPAKRFSIRQIRQHSWFRKKHPPAEAPVPIPPSPDTKDRWRSMTVVPYLEDLHGADEDEDLFDIEDDIIYTQDFTVPGQVPEEEASHNGQHRGLPKAVCMNGTEAAQLSTKSRAEGRAPNPARKACSASSKIRRLSACKQQ [R383H] | 1.57 ± 0.31
